The text below walks through data of publication PMC32300.

The target in experiment [1] is RPTPα-516-XFP (RPTPα-516-CFP and RPTPα-516-YFP). In words: FRET or BRET. On the technique in general: Bioluminescence resonance energy transfer reports proximity on the nanometre scale.
The target in experiment [2] is RPTPα-P137C. Put plainly: cross-linking.
For experiment [3], the target named is RPTPα-P137C. In words: non-reducing SDS-PAGE.
The target in experiment [4] is RPTPα-P137C-XFP (RPTPα-P137C-CFP and RPTPα-P137C-YFP). Put plainly: FRET or BRET.
The target in experiment [5] is full length RPTPα-XFP (RPTPα-CFP and RPTPα-YFP). In words: cross-linking.
The target is the same in experiment [6]. In words: FRET or BRET.
Experiment [7] has as its target RPTPα-200-XFP (RPTPα-200-CFP and RPTPα-200-YFP). In words: cross-linking.

What is called stoichiometry N is a count of units in the complex or per binding partner.

Sequence of RPTPα-200-XFP (RPTPα-200-CFP and RPTPα-200-YFP) (P18052 20-829): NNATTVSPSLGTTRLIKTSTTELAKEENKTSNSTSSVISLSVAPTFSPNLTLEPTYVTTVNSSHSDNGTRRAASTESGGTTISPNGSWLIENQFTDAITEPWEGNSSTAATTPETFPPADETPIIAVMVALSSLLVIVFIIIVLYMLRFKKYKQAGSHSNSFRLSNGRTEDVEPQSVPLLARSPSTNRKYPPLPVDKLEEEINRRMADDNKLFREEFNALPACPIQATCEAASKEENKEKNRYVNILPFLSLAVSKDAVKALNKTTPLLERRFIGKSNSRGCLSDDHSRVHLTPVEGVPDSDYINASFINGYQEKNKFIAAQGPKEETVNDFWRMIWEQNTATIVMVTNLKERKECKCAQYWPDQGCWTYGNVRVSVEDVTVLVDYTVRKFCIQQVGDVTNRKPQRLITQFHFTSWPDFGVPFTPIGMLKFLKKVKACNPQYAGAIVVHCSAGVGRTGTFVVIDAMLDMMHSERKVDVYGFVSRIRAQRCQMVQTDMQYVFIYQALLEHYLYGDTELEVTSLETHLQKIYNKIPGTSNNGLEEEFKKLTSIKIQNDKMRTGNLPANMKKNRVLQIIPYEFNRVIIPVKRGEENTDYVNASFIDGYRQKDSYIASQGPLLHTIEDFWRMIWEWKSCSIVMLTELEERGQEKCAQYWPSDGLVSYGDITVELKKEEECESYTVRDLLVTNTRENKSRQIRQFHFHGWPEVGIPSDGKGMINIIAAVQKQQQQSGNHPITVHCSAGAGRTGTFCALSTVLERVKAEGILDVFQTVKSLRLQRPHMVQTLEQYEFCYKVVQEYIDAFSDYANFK
Sequence of RPTPα-516-XFP (RPTPα-516-CFP and RPTPα-516-YFP) (P18052 20-829): as above

For “RPTPα-516-XFP (RPTPα-516-CFP and RPTPα-516-YFP) (domain or fragment)”, in experiment [1], the F(440)/F(490) ratio amounted to 0.46.

Turning to RPTPα-P137C (receptor), the percent cross-linked by BS3 with RPTPα-P137C [2] is < 10%. Besides, in the experiment with RPTPα-P137C [3], the percent in the dimeric form was > 80%.

As to “RPTPα-P137C-XFP (RPTPα-P137C-CFP and RPTPα-P137C-YFP) (receptor)”, in experiment [4], the F(440)/F(490) ratio is 0.5.

As for “full length RPTPα-XFP (RPTPα-CFP and RPTPα-YFP) (receptor)”, the stoichiometry N in experiment [5] was determined as 2. In addition, the CFP fluorescence lifetime (τφ) in experiment [6] worked out at 2.2 ns.

“RPTPα-200-XFP (RPTPα-200-CFP and RPTPα-200-YFP) (domain or fragment)” had a stoichiometry N in experiment [7] of 2.
